The source of these data is publication PMC6312279, “Characterization of a protozoan Phosducin-like protein-3 (PhLP-3) reveals conserved redox activity” (PLoS ONE, 2018).

One assay has as its target T1, PbPhLP-3 (Plasmodium berghei, UniProt A0A509AN16).
T1 construct: gene PBANKA_1204800
T1 sequence (A0A509AN16 1-193): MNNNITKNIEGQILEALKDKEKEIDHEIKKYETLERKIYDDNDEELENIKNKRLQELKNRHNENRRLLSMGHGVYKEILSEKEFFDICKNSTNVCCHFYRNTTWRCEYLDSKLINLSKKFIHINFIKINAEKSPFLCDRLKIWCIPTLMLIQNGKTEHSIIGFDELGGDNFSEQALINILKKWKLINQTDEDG
As to the kind of experiment: thioredoxin-coupled NADPH oxidation assay, […] nm. Type of assay: biochemical. The settings on record: PbTrxR/PbTrx-1/NADPH as reductant, pH 7.4, 25 °C; linear, non-saturating up to millimolar TBHP, authors suggest non-enzymatic mechanism.

Another assay has as its target T2, HsPhLP-3 (Homo sapiens, UniProt O14530).
T2 construct: gene TXNDC9
T2 sequence (O14530 1-226): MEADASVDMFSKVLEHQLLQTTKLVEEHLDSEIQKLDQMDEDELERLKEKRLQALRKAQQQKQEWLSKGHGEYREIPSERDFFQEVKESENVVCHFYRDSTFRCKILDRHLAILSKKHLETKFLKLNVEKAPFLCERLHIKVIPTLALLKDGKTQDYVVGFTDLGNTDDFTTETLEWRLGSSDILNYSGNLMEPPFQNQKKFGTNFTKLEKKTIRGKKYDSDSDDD
The assay is described as follows: thioredoxin-coupled NADPH oxidation assay, […] nm. In kind it is biochemical. The settings on record: thioredoxin system/NADPH as reductant, millimolar TBHP needed; data not shown separately.

Assay [1] deals with Plasmodium berghei Phosducin-like protein-3 (PbPhLP-3) (Plasmodium berghei).
Assay [2] deals with T3, human PhLP-3 (HsPhLP-3; thioredoxin-domain containing protein 9, TXNDC9) (human) (UniProt O14530).
T3 sequence: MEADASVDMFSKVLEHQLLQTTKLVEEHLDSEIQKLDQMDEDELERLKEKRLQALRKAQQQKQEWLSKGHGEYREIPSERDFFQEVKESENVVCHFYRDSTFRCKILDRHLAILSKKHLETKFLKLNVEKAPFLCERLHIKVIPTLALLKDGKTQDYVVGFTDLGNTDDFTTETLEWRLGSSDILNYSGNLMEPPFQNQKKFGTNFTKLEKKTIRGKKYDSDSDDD

For the molecule `CC(C)(C)OO` [TBHP], the results for the “thioredoxin-coupled NADPH oxidation assay, 340 nm” value at PbPhLP-3 and at HsPhLP-3 were “reduction of the compound was observed in the presence of PbPhLP-3” and “both PhLP-3 proteins investigated here reduce the oxidative compound TBHP”, respectively.
For “Plasmodium berghei thioredoxin-1 (PbTrx-1) (natural protein)”, in assay [1], the KM for PbTrx-1 in the Trx-reduction assay (initial velocities of NADPH oxidation at PbTrx-1 0.5–50 μM) was found to be 5.82 µM, the Vmax in the Trx-reduction assay (initial velocities of NADPH oxidation at PbTrx-1 0.5–50 μM) was determined as 10.1 µM/min, the kcat in the Trx-reduction assay (initial velocities of NADPH oxidation at PbTrx-1 0.5–50 μM) worked out at 0.0167 s⁻¹ and the kcat/KM (rate constant) in the Trx-reduction assay is 2830 M⁻¹ s⁻¹.

B1: human Trx-1 (HsTrx-1) (natural protein)
chain: MVKQIESKTAFQEALDAAGDKLVVVDFSATWCGPCKMIKPFFHSLSEKYSNVIFLEVDVDDCQDVASECEVKCMPTFQFFKKGQKVGEFSGANKEKLEATINELV
Take B1: in assay [2], the KM in the Trx-reduction assay with PbTrxR, HsTrx-1 and HsPhLP-3 amounted to 6.53 µM; the Vmax in the Trx-reduction assay with PbTrxR, HsTrx-1 and HsPhLP-3 turned out to be 12.6 µM/min; the kcat in the Trx-reduction assay with PbTrxR, HsTrx-1 and HsPhLP-3 turned out to be 0.021 s⁻¹; the kcat/KM (rate constant) in the Trx-reduction assay with PbTrxR, HsTrx-1 and HsPhLP-3 was found to be 3170 M⁻¹ s⁻¹.
